In patent US20060036083:

Biological target: human neutrophil peptide (HNP)-1
Sequence (chain, as listed by the source): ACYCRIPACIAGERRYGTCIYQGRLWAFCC

B1: recombinant ADP-ribosyltransferase (ART)-1 with a FLAG tag, cloned from a rabbit muscle cDNA library (protein)
chain: QSHLVTRRDLFSQETPLDMAPASFDDQYVGCAAAMTAALPHLNLTEFQVNKVYADGWALASSQWRERSAWGPEWGLSTTRLPPPPAGFRDEHGVALLAYTANSPLHKEFNAAVRQAGRSRAHYLQHFSFKTLHFLLTEALQLLGRDQRMPRCRQVFRGVHGLRFRPAGPGTTVRLGGFASASLKNVAAQQFGEDTFFGIWTCLGVPIQGYSFFPGEEEVLIPPFETFQVINASRPAQGPARIYLKALGKRSSYNCEYIKEMQCKSRPCHLDNS
ADP-ribosylation of HNP-1 by ART-1 with NAD+ (RP-HPLC, MALDI mass spectrometry): peptides with a mass of 3,983 daltons (retention time 46.5 minutes), consistent with mono-ADP-ribosyl-HNP (calculated mass equivalent to 3,983 daltons), were identified
